Results published in the DeepSol protein solubility set.

Test: soluble on expression in E. coli; label from the status in PepcDB or PDB records

| Sequence | soluble on expression in E. coli |
| --- | --- |
| MSKLELLPAVDVRDGQAVRLVHGESGTETSYGSPLEAALAWQRSGAEWLHLVDLDAAFGTGDNRALIAEVAQAMDIKVELSGGIRDDDTLAAALATGCTRVNLGTAALETPEWVAKVIAEHGDKIAVGLDVRGTTLRGRGWTRDGGDLYETLDRLNKEGCARYVVTDIAKDGTLQGPNLELLKNVCAATDRPVVASGGVSSLDDLRAIAGLVPAGVEGAIVGKALYAKAFTLEEALEATSLEPG | soluble |
| MNPIVINRLQRKLGYTFNHQELLQQALTHRSASSKHNERLEFLGDSILSYVIANALYHRFPRVDEGDMSRMRATLVRGNTLAELAREFELGECLRLGPGELKSGGFRRESILADTVEALIGGVFLDSDIQTVEKLILNWYQTRLDEISPGDKQKDPKTRLQEYLQGRHLPLPTYLVVQVRGEAHDQEFTIHCQVSGLSEPVVGTGSSRRKAEQAAAEQALKKLELE | soluble |
| GMIDFTKSKQYTLSIRLSTDGFSFSIYNPINDNSQSLFEKEVDTSLSLTANLKNVFHESDFLSYSYKRVNIMIASKRFTMIPLELFEEEQAELLFYHNHQKRENEIVMYNILKKNNVVIIFGIDKSTYTFLNEQYPEARFYSQSTPLIEYFSIKSRLGNSKKMYASVRKDAIDIYCFERGQLLLANSFECMQTEDRIYYLLYVWKQLEFNQERDELHLTGTLSDKETLMNELKKFILQVFIMNPANNIDMQALLTCE | soluble |
| SLKITDDCINCDVCEPECPNGAISQGEEIYVIDPNLCTECVGHYDEPQCQQVCPVDCIPLDDANVESKDQLMEKYRKITGKA | soluble |
| MKSNTSQQRPYQEVGAMIRDLIVQTPYRPGERLPPEREIAERLNVTRTVVREALIMLEIKGLVEVRRGAGIYVLDSADNNEMEGADVNHCNDAGPFELLQARQLLESNIAEFAALQATREDIIKMRQALQLEERELASSAPGGSESGDMQFHLAIAEATHNSMLVELFRQSWQWRENNPMWLQLHSHLGDTLYRKEWLVDHKQILAALIKKDARAAKLAMWQHLENVKQRLLEFSNVDDIYFDGYLFESWPLDNVDA | not soluble |
| MKMTVVGFWGGFPEAGEATSGYLFEHDGFRLLVDCGSGVLAQLQKYITPSDIDAVVLSHYHHDHVADIGVLQYARLITSATKGQLPELPIYGHTFDENGFHSLTHEPHTKGIPYNPEETLQIGPFSISFLKTVHPVTCFAMRITAGNDIVVYSADSSYIPEFIPFTKDADLFICECNMYAHQEAAKAGHMNSTEVASIAKDANVKELLLTHLPHTGNPADLVTEAKQIFSGHITLAHSGYVWNS | soluble |
| MAHHHHHHMLNILSYSKLFSSCGRQAVTCPKGCNSYRHVSTGSDECLFTDGRASMGREFTLQPVEMEPVFKVHRPYSSSNCDNPISEDDLPYECGASSDCNTRSSTLRERAVCDEPLAKGLQNTTASTPYRVSWYERGAVSPSKRFVYWAFRRLWDLPPDAREYYRRMLYQEVRAARYVNQTWDCFMMVVDGYRKGKWILKKYGIKIDEGLIPKPYNNFWEETTHEERVWAHRRSHQMKDLQALQREDDNLVFGAHIMDRREVTYGSVKNLQTGMQGGTPVHAHDLPAPFEADVKMSLHEEDISSALMSSIEDDKLWNPVLRSRVHNKLARDEAELYGFEDEDDGDDRS | not soluble |
| MLKVSDLLTLEELPGITLVAGHKNQDQPILKVNILENPDILDWLTAGELLLTTGYIFKDDRKLQKNFLKELAKHHCAALGFKTQRYFEEVPPDLIKLADEMNVPILAIPYNYTFSQIADVLKSRVTLEQFDMNAQETALHNKIYQILETGSSSFHLLQDLAETIQNPVLLLNDHFEGVNFFDLPKNPIRISSILEDRQETSEFQKQLLEQSHPLLRFYQEPIHLQLKLQNQVVPIEIYPIKKKNVILYYLLVWNTLAPLRPVDVAHFKITAHYLLLQLQLEYSRKFEEYQQRNELFFKLFAHEKRDQAVFQQFQQYYRLAIDKPYAILLISLTLNERQRQERMSILGNQLNQVILGDKQKIVCIEIDSSFVLLVENPPEKEGDYLKMMQRLAQSSINQLMKVQEDVELFLTIGPKIQGLTQIHESYQQAIDVLAFQRQFVAEKPEMRIASYSNFHFRQTLQRYFLEEGQATLRKKYLQPLQKSDQQQHTDFVHTLNVYFQSKRNLSQTAKKLFIHRNTLLQRLEKIEQLVLLDFDKEVDLLALEVALFVGT | not soluble |
| MLYNKSSFCLWKETIVPIILDSDVLEVAEYVYKTRLSQPYTEVGSEWEYNYKNPTATFAKGDGHNLQRYITIDGKQLHRPIHGLAHTMRTLMYSQLMYCSSKKQPSPHVCQDGRTIADLSELDLKKINIAQLFFVAGRESEASYGDAYHRYHLYGAKQFEEYARKHLTHLFSEEEIRLYSRCIEDRVGDSFDGTPEGYIIHLSHMIDLMRCKSPVEVFLGHSKGVSGIVPTLIHLFGKQDGLDIMHYARGLFAATGEAVPYIDSSEWPHLGVDLSRVQRALSIVGDINVPGQEADSKKTAQAGFSVDGCYSALTSVPTPSWYEKELKEIDDEKIDVKEVDDREIEKEHEIVVPSQATTPLSTVKTDSFVEKLLKPFMIWKKPEVQTTQPTTEKTNKP | not soluble |
| MGSDKIHHHHHHMLRPESEAELAQIVAGLTAPVRIRGGGTRGVPGPKAELDISGLSGITLYEPGALTLVAKAGTPVAEIEAALAAEGQRLAFEPVDHRGLMGTGGTPTIGGVVAGNISGPRRIQAGAARDFLLGVRYVDGLGQVISNGGRVMKNVTGYDLVKLMAGSWGTLGVLSEVSLKVLPKAETQTTLAISVPDAASAVRALSAGLGSPYEVTGAAYDPALGQALVRIEGFEASVAYRAEALSRLFAPFGTVARLEDDPWPGIRDVAPFHGREGDVWRISVKPGDAPELAARCKAEALLFDWGGGLIWALMPEGADLRGRLGEFAGHATLIRGDRRQHAMFQPESAPLAALTRGLRQRFDPKGHFNPGLMG | not soluble |
| MIFSVDKVRADFPVLSREVNGLPLAYLDSAASAQKPSQVIDAEAEFYRHGYAAVHRGIHTLSAQATEKMENVRKRASLFINARSAEELVFVRGTTEGINLVANSWGNSNVRAGDNIIISQMEHHANIVPWQMLCARVGAELRVIPLNPDGTLQLETLPTLFDEKTRLLAITHVSNVLGTENPLAEMITLAHQHGAKVLVDGAQAVMHHPVDVQALDCDFYVFSGHKLYGPTGIGILYVKEALLQEMPPWEGGGSMIATVSLSEGTTWTKAPWRFEAGTPNTGGIIGLGAALEYVSALGLNNIAEYEQNLMHYALSQLESVPDLTLYGPQNRLGVIAFNLGKHHAYDVGSFLDNYGIAVRTGHHCAMPLMAYYNVPAMCRASLAMYNTHEEVDRLVTGLQRIHRLLG | soluble |
| GSMKPYKELERVFTKLYRYGHMLLLADWDSHTMMPCKGSDARGAAMAELQLHMHDTITAPKIRALIEEAEKSVGDLEKLQRANLREMRRAWELENLLPEEFVERKTVLTTKAHQVWKTCREKNDFAGFLPTLKELIALFREEGKLRAGNSGKHPYEALVDIYEPGMTLQRLDEIFGNVRSWLPELLKEVQEKQKALGETVLEPKGPFPVSKQEALCRFFMDVWKFDFDGGRLDVSAHPFCGNSKEDVRITTKYTETEFVTSLLGVIHETGHAKYEQNCGPKGFETQPVCMARSLGVHEGQSLFAEMQIGRSGAFMEFLAPRLVEYFGDQPAFTSSNMKRVIQRVSPGLIRIDADELCYPLHVMLRYEIERDLMDGNIEAEEVPRVWNEKMKSYLGLETLGNDKEGCLQDVHWSGGMFGYFPTYSLGAMVAAQLMSCVRRELGEEVVDDCIRKGDLGKILAKQNEKIWQHGSSLTTDELLRQATGETLNPEHYRRHLERRYRDDRG | soluble |
| MDGFQLGNNSPKEITVFCDESRPEALRAASITQRYLCIGSIWVDRERVREVNEEIRALQIKYSKMGEVKWGKVSPSSIQFNCELIDLFFDERFNLQFRAIVVDNQKVDLSYHNNDQELGFYKFYYQMLKHKLINGCSYRIYCDLKTNKMRGRASTLEHYLQTYCLGSVEMVQLLPSNDLPLMQLTDLLLGAVSTKFNFRIPKSPAKNEVISTIERHIGHQIQPTRKNEQKFNVFCIEPGMGR | not soluble |
| MEFNLSALGSAPAAEETYDVVIIGGGPAGLTAGIYAGRAQLKTVIVEKGLPGGQIAQTDEVENYPGFPEGISGPELASRMVRQAEKFGARIVMDEVLGLEKAEGGYLVRGYERNYRARAVIVATGANPRRLGVPGEDKFYGRGVSTCATCDGFFYRDKEVVVVGGGDAAVEEGIFLTKFARKVTLVHRRDELRANKVAQKRAFQNPKMHFLFSHVVTEILGEDQVTGVRLKNLKTGEEYVYPTDGVFVFIGHEPNTAFLKGVVELRPDGYIAVRDEVFTSEPGIFAAGDVADPIYRQLTTSVGAGTRAAMMAERYLAEEAEKVKG | soluble |
| MTLLNLMIMQDYGISVCLTLTPYLQHELFSAMKSYFSKYILPVSLFTLPLSLSPSVSAFTLPEAWRAAQQHSADFQASHYQRDAVRARQQQAKAAFLPHVSANASYQRQPPSISSTRETQGWSVQVGQTLFDAAKFAQYRQSRFDTQAAEQRFDAAREELLLKVAESYFNVLLSRDTVAAHAAEKEAYAQQVRQAQALFNKGAATALDIHEAKAGYDNALAQEIAVLAEKQTYENQLNDYTDLDSKQIEAIDTANLLARYLPKLERYSLDEWQRIALSNNHEYRMQQLALQSSGQALRAAQNSRYPTVSAHVGYQNNLYTSSAQNNDYHYRGKGMSVGVQLNLPLYTGGELSGKIHEAEAQYGAAEAQLTATERHIKLAVRQAYTESGAARYQIMAQERVLESSRLKLKSTETGQQYGIRNRLEVIRARQEVAQAEQKLAQARYKFMLAYLRLVKESGLGLETVFAE | not soluble |
| GNYPRNVGLSPLSGVDPSEVFDVTPYAVATDKYFIKNATTYHLPRKLKVSYSNCYTDTAHCSIQDLGFVATLKNDEPYFRVFLGGGLGKQPKVALELDELIKPKDALYCVEGMIKFFMDYGNYENKNRARVRYMVESLGEELFLEKFKEYYKLEKENGSLELNI | not soluble |
| MPRLYLGKIPYNARERDVERFLKGYGKINNISMKYGFAFVDFEDSRDAEDACHDLDGKTMEGSSMRLVVEMARGKPRGNDRHGSRSPRRRSRSPRRRSRTPPRRRSRSRDRKRSRRSRSRSSSRSRSPVRESRRRSESRSPSPKRDLKREASRSRSPLPAKDRSRTRSGSPPKNGGDRKRSVSRGRSHSRDGSNRSVSRSPSPGSPKD | not soluble |
| MIMGFWNGVAKAAKAVGEGMIEAGNEHKALKMEYAEKSSEELHEIVKSDGFFKNSTREKSAAYAILKERGEV | not soluble |
| MGHHHHHHSHMSAPIVDAPAAEIVYKIISSDGVVSKMSEKAVQQSKTLSNLIENLGYTIENIETRDPIPVTNVNGKTMAKVAEWCEKHKADAIPEDNMNVLKTLTIPEWDQKFLKIEDEALFDLILASNFLDIKGLMYFGCKTVSNMAKGKTTAELREIFGINTDEQDAAEETAQRAAAEVA | soluble |
| SMQQLVLDPGFLGLEPLLDLLLGVHQELGASELAQDKYVADFLQWAEPIVVRLKEVRLQRDDFEILKVIGRGAFSEVAVVKMKQTGQVYAMKIMNKWDMLKRGEVSCFREERDVLVNGDRRWITQLHFAFQDENYLYLVMEYYVGGDLLTLLSKFGERIPAEMARFYLAEIVMAIDSVHRLGYVHRDIKPDNILLDRCGHIRLADFGSCLKLRADGTVRSLVAVGTPDYLSPEILQAVGGGPGTGSYGPECDWWALGVFAYEMFYGQTPFYADSTAETYGKIVHYKEHLSLPLVDEGVPEEARDFIQRLLCPPETRLGRGGAGDFRTHPFFFGLDWDGLRDSVPPFTPDFEGATDTCNFDLVEDGLTAMVSGGGETLSDIREGAPLGVHLPFVGYSYSCMALRDSEVPGPTP | soluble |
